± gives the standard deviation of the averaged measurements.
Tests used:
[1] = test system: Saccharomyces cerevisiae; assay: protein stability index of tFT-peptide fusion in wild type (PSI (0-1 scale)); higher = more stable (slower turnover); details: genetic background: wild type
Experimental: (§1)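 MPS profiling in S. cerevisiae of two library types built from selected 12-aa C-degron peptides (IN1, IN2, LN1, LN3, VN2, R1-R5, W1-W3, Atg1 and Rpa12 C-termini): saturation mutagenesis libraries and C-terminal +1 capping libraries (13 aa). Each peptide is fused to the C-terminus of a sfGFP-mCherry timer, after a GGGS linker. Cells are FACS-sorted into 8 mCherry/sfGFP bins and sequenced. PSI runs from 0 (unstable) to 1 (stable), measured once in wild type and in the das1Δ or doa10Δ background.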

[2] = test system: Saccharomyces cerevisiae; assay: protein stability index of tFT-peptide fusion in deletion strain of DAS1 (PSI (0-1 scale)); higher = more stable (slower turnover)
Experimental: as §1

[3] = test system: Saccharomyces cerevisiae; assay: protein stability index of tFT-peptide fusion (C-terminal peptide) (PSI (0-1 scale)); higher = more stable (slower turnover); details: temperature: 30 C
Experimental: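 MPS profiling in S. cerevisiae of the yeast C-terminome library: the last 12 aa of each annotated ORF are fused to the C-terminus of a sfGFP-mCherry timer, after a GGGS linker. Cells are FACS-sorted into 8 mCherry/sfGFP bins and deep-sequenced. PSI runs from 0 (unstable) to 1 (stable); wild type and das1Δ backgrounds, two technical replicates each.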

[4] = genetic background: das1 deletion
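Throughout, for protein stability index of tFT-peptide fusion in deletion strain of DAS1: PSI is a weighted mean of each variant's read distribution over the sorted stability bins, computed only for variants having over 10 reads in total.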
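Throughout, for protein stability index of tFT-peptide fusion in wild type: PSI derived as read-weighted mean over the 8 sorting bins, only variants exceeding 10 total reads kept, mCherry placed adjacent to the peptide and sfGFP distal.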

Sequence | protein stability index [1] | protein stability index [2] | protein stability index [3, 4] | protein stability index ([3]; genetic background: wild type)
CTSCGYKFRTNA | 0.266 | 0.697 | – | –
CTSCGYKFRTND | 0.7 | 0.695 | – | –
CTSCGYKFRTNN | 0.247 | 0.691 | – | –
CTSCGYKFRTNNF | 0.711 | 0.712 | – | –
CTSCGYKFRTNNG | 0.683 | 0.69 | – | –
CTSCGYKFRTNS | 0.465 | 0.697 | – | –
CTSCGYKFRTTN | 0.191 | 0.699 | – | –
CTSCGYKFRTYN | 0.31 | 0.696 | – | –
CTSCGYKLRTNN | 0.471 | 0.678 | – | –
CTSCGYKQRTNN | 0.538 | 0.688 | – | –
CTSCGYKRRTNN | 0.477 | 0.683 | – | –
CTSDGYKFRTNN | 0.517 | 0.669 | – | –
CTSLGYKFRTNN | 0.17 | 0.689 | – | –
CTSRGYKFRTNN | 0.215 | 0.685 | – | –
CYSCGYKFRTNN | 0.168 | 0.708 | – | –
DKHKKGQKQKIN | 0.113 | 0.602 | – | –
FMMRWTFRYWVN | 0.0399 | 0.359 | – | –
FQMRWTFRYWVN | 0.0681 | 0.46 | – | –
FRMRWTFRYWVN | 0.0353 | 0.584 | – | –
FSKRWTFRYWVN | 0.0512 | 0.596 | – | –
FSMEWTFRYWVN | 0.112 | 0.425 | – | –
FSMRNTFRYWVN | 0.0817 | 0.578 | – | –

Sequence | protein stability index [1] | protein stability index [2] | protein stability index [3, 4] | protein stability index ([3]; genetic background: wild type)
FSMRSTFRYWVN | 0.096 | 0.608 | – | –
FSMRWCFRYWVN | 0.0796 | 0.554 | – | –
FSMRWEFRYWVN | 0.0711 | 0.471 | – | –
FSMRWNFRYWVN | 0.0584 | 0.536 | – | –
FSMRWTFDYWVN | 0.618 | 0.577 | – | –
FSMRWTFHYWVN | 0.048 | 0.456 | – | –
FSMRWTFREWVN | 0.0594 | 0.57 | – | –
FSMRWTFRRWVN | 0.11 | 0.623 | – | –
FSMRWTFRWWVN | 0.0591 | 0.462 | – | –
FSMRWTFRYLVN | 0.0662 | 0.479 | – | –
FSMRWTFRYWNN | 0.158 | 0.549 | – | –
FSMRWTFRYWVM | 0.136 | 0.482 | – | –
FSMRWTFRYWVNP | 0.533 | 0.544 | – | –
FSMRWTFRYWVR | 0.416 | 0.446 | – | –
FSMRWTFWYWVN | 0.0405 | 0.416 | – | –
FSMRWTNRYWVN | 0.0731 | 0.592 | – | –
YTTVLSSQSSKL [PEX8 C-terminal 12 aa] | – | – | 0.783 ± 0.013 | 0.855 ± 0.091
YVIHLDQIDRDL [YLR269C C-terminal 12 aa] | – | – | 0.714 ± 0.0093 | 0.699 ± 0.028
YVTYSGENTFGR [ATG8 C-terminal 12 aa] | – | – | 0.703 ± 0.025 | 0.691 ± 0.021
YVVKGWCDSRFL [GIS3 C-terminal 12 aa] | – | – | 0.72 ± 0.01 | 0.701 ± 0.016
YYYKNSYWPSHI [VPS36 C-terminal 12 aa] | – | – | 0.6935 ± 0.0058 | 0.701 ± 0.027

Source: the supplement of paper PMC10724198
